{"source": "patent US8933202B2", "about": "“AXL antibodies” (U3 Pharma GmbH, priority 2007, dated 2015)", "molecules": {"B1": {"name": "11B7: antagonistic rat anti-AXL monoclonal antibody, rat IgG1 (antibody, V domains shown)", "VL": "DIQMTQAPSSLPASLGDRVTITCRASQDIGNYLRWFQQKPGKSPRLMISGATNLAAGVPSRFSGSRSGSDYSLTISSLESEDMADYYCLQSKESPWTFGGGTKLELK", "VH": "EVQLQESGPGLVKPSQSLSLTCSVTGYSITSNYWGWIRKFPGDKMEWMGYITYSGSTSYNPSLKSRISITRDTSKNQFFLQLNSVTSEDTATYYCAITTFYYWGQGVMVTVSS"}}, "key": {"[1]": {"system": "NCI/ADR-RES ovarian cancer cells", "assay": "TUNEL staining, combination with doxorubicin", "type": "cell-based, human", "settings": "24 h", "text": "As rat anti-Axl antibodies of the invention turned out to interfere with Gas6-mediated anti-apoptosis of serum-starved NIH3T3-Axl cl.7 fibroblasts, the question arose, whether antagonistic anti-Axl antibodies would synergize with chemotherapeutic agents in inducing apoptosis, thereby contributing to overcome drug resistance. In this example, NCI/ADR-RES (originally named MCF-7/AdrR) cells—a ovarian cancer cell line (Liscovitch and Ravid, 2007, Cancer Letters, 245, 350-352) displaying a high level of resistance to several agents including doxorubicin (Fairchild et al., 1987, Cancer Research, 47, 5141-5148; Xu et al., 2002, The Journal of Pharmacology and Experimental Therapeutics, 302, 963-971)—were incubated with the antagonistic anti-Axl antibody 11B7 and/or doxorubicin, and apoptosis rates were determined by TUNEL staining. In brief, 3×10^4 NCI/ADR-RES cells in normal growth medium were seeded per well of an 8-chamber culture slide (BD Falcon, cat#354118) which were pre-incubated with the same medium for 1 h at 37° C. The next morning, normal growth medium was removed and cells were washed with and cultured in serum-reduced (0.5% FCS) medium. In the evening, isotypic control antibody 1D5 or the antagonistic anti-Axl antibody 11B7 were added at final concentrations of 10 μg/ml each. In the morning of day 3, doxorubicin at final concentrations of 100 μM, 150 μM, or 200 μM was added, and cells were incubated at 37° C. After 24 h, cells were rinsed once with PBS, fixed with 4% formaldehyde in PBS (pH 7.5) for 20 min at room temperature, air-dried for 5 min, and stored at −20° C. Using the commercially available Fluorescein-FragEL™ kit (Oncogene, cat#QIA39, presently being distributed through Merck-Calbiochem), TUNEL staining was performed according to the supplier's manual instructions (chapter ‘Fluorescein-FragEL™ of cell preparations fixed on slides’, page 10). Applying fluorescence microscopy, cells were analyzed and photos were taken."}, "[2]": {"system": "PC-3-LN prostate carcinoma", "assay": "Orthotopic prostate carcinoma xenograft model in nude mice", "type": "in vivo, NMRI nu/nu mice", "method": "The anti-tumor efficacy of therapeutic antibodies is often evaluated in human xenograft tumor studies. In these model systems, human tumors grow as xenografts in immunocompromised mice and therapeutic efficacy is measured by the degree of tumor growth inhibition. The aim of this study was to evaluate whether the antagonistic rat anti-AXL antibody 11B7 of the invention interferes with tumor growth of human prostate cancer cells in nude mice. In brief, on day 0, 7-8 weeks old male NMRI^−nu/nu mice (approximate weight: 30 g after acclimatization) were anesthesized with 1.5-2.0 volume percent isoflurane at an oxygen flow rate of 2 l/min, and 1×10^6 PC-3-LN cells in 25 μl PBS were orthotopically implanted into the prostate. PC-3-LN cells are derived from the PC-3 prostate carcinoma cell line which was infected with a retrovirus coding for a luciferase-neomycin fusion protein. The onset of tumor growth and tumor growth progression was therefore measurable via in vivo bioluminescence imaging. For this purpose, luciferin was injected intraperitoneally (i.p.) into the mice and light emission was measured 10 min post injection using a NightOWL LB 981 bioluminescence imaging system (Berthold Technologies, Germany). Prior to first treatment, mice were randomized and statistical tests performed to assure uniformity in starting tumor volumes (mean, median and standard deviation) across the treatment groups of 10 animals each. On day 8, all treatments started and were continued until day 34, followed by necropsy on day 35. […] In the same experiment as described under “Rat anti-AXL antibodies of the invention reduce human prostate carcinoma growth in nude mice”, relocalization of PC-3-LN tumor cells into other organs (metastasis) was analyzed post necropsy to evaluate anti-metastatic effects of the antagonistic rat anti-AXL antibody 11B7 of the invention. […] Subsequently, light emission was measured using a NightOWL LB 981 bioluminescence imaging system (Berthold Technologies, Germany)."}, "HUVEC spheroids": {"system": "HUVEC spheroids", "assay": "Spheroid-based cellular angiogenesis assay", "type": "cell-based, human", "settings": "25 ng/ml VEGF-A, 24 h", "method": "AXL is a key regulator of multiple angiogenic behaviors including endothelial cell migration, proliferation, and tube formation in vitro (Holland et al., Cancer Res: 65, 9294-9303, 2005). […] The experiments were pursued in modification of the originally published protocol (Korff and Augustin: J Cell Sci 112: 3249-58, 1999). In brief, spheroids were prepared as described (Korff and Augustin: J Cell Biol 143: 1341-52, 1998) by pipetting 500 human umbilical vein endothelial cells (HUVEC) in a hanging drop on plastic dishes to allow over night spheroid aggregation. 50 HUVEC spheroids were then seeded in 0.9 ml of a collagen solution (2 mg/ml) and pipetted into individual wells of a 24 well plate to allow polymerization. […] Plates were incubated at 37° C. for 24 hours and fixed by adding 4% paraformaldehyde. Sprouting intensity of HUVEC spheroids was quantified by an image analysis system that determines the cumulative sprout length per spheroid using an inverted microscope and the digital imaging software Analysis 3.2 (Soft imaging system, Munster, Germany). The mean of the cumulative sprout length of 10 randomly selected spheroids was analyzed as an individual data point."}}, "data": [{"molecule": "B1", "values": [{"measurement": "apoptosis (TUNEL staining), co-incubation with 100 μM doxorubicin", "setting": "[1]; 10 μg/ml 11B7 + 100 μM doxorubicin", "result": "No TUNEL staining, and hence no apoptosis"}, {"measurement": "apoptosis (TUNEL staining), co-incubation with 150 μM doxorubicin", "setting": "[1]; 10 μg/ml 11B7 + 150 μM doxorubicin", "result": "substantial induction of apoptosis"}, {"measurement": "apoptosis (TUNEL staining), co-incubation with 200 μM doxorubicin", "setting": "[1]; 10 μg/ml 11B7 + 200 μM doxorubicin, compared to control IgG antibody", "result": "significantly increased apoptosis rates"}, {"measurement": "overall growth of PC-3-LN prostate tumors (in vivo bioluminescence)", "setting": "[2]; 25 mg/kg i.p. 3x a week, day 8 to 34, compared to isotypic control antibody 1D5", "result": "reduced the overall growth of PC-3-LN prostate tumors"}, {"measurement": "occurrence of spleen metastases", "setting": "[2]; 25 mg/kg i.p. 3x a week, post necropsy, compared to 1D5", "result": "reduced the occurrence of spleen metastases"}, {"measurement": "anti-metastatic effect compared with Sutent", "setting": "[2]; 11B7 25 mg/kg i.p. versus Sutent 40 mg/kg p.o. daily, spleen", "result": "stronger than that of Sutent"}, {"measurement": "HUVEC sprouting at the highest antibody concentration", "setting": "HUVEC spheroids", "result": "reduced HUVEC sprouting to basal levels"}]}]}
